In PMC10781630, “Structural basis of Gabija anti-phage defence and viral immune evasion” (Nature, 2023):

How the values were obtained:
[1] = molecular target: the molecule itself; experiment: crystal structure; co-expressed and co-purified GajAB, 3.0 Å; hanging drop, 18 °C, 100 mM HEPES-NaOH pH 7.5, 2.4% PEG-400, 2.2 M ammonium sulfate
[2] = molecular target: the molecule itself; experiment: cryo-EM structure; SUMO2-GajAB–Gad1 (Phi3T) co-complex, 1 mg ml^-1, 2.57 Å D2 symmetry map
[3] = molecular target: T1, SUMO2-tagged GajAB complex (Bacillus cereus VD045), 4:4 (Bacillus cereus VD045, UniProt J8H9C1 2-578; J8HQ06 1-494); experiment: as above; conditions: both partners purified
T1 construct: GajA, Bacillus cereus VD045, IMG ID 2519684552; GajB, Bacillus cereus VD045, IMG ID 2519684553; also called SUMO2-GajAB; SUMO2-tagged BcGajAB; source: E. coli, co-expressed, purified (Ni-NTA, SEC); not shown: 6×His-SUMO2, N-terminal, kept; copies: 4 + 4
T1 sequence 1: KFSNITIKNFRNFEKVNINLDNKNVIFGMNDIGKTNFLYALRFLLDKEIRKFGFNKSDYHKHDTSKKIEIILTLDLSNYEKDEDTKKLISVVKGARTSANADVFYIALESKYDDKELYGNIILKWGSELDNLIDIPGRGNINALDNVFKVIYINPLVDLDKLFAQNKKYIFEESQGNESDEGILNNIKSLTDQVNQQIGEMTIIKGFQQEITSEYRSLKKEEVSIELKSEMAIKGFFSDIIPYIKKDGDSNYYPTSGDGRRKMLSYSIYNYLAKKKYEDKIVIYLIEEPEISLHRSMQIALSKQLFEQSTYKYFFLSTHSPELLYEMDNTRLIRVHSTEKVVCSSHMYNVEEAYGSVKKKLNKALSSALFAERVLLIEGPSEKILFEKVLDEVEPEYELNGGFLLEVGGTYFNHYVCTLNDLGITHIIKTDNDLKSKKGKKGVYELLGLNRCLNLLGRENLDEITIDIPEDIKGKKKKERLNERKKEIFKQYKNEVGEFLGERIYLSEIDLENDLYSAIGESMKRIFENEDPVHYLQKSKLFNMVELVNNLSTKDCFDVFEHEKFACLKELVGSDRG
T1 sequence 2: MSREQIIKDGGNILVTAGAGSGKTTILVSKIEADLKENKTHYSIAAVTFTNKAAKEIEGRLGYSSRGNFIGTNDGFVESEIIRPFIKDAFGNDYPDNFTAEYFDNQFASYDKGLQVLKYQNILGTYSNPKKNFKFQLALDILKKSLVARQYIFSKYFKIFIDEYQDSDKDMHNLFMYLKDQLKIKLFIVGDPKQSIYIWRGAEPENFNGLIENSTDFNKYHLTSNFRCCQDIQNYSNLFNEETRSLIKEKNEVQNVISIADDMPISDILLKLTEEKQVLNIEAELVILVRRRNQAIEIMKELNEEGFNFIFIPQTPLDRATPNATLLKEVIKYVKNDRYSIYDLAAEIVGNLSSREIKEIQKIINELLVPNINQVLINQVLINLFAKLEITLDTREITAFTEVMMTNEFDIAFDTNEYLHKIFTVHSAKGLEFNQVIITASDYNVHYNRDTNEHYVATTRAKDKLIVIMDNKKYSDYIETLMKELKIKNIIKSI

GajA E379A;GajB = molecular target: T2, GajA E379A;GajB (Bacillus cereus VD045;Bacillus cereus …, UniProt J8H9C1;J8HQ06 1-578;1-494, E379A|); experiment: EMSA; 5 mM Ca2+; conditions: protein: recombinant;recombinant; tags: N-terminal 6xHis-SUMO2-5xGS, cleaved by SENP2;none in co-expressed complex; chain copies: 4;4; label: none (ethidium bromide post-stain)
T2 sequence 1: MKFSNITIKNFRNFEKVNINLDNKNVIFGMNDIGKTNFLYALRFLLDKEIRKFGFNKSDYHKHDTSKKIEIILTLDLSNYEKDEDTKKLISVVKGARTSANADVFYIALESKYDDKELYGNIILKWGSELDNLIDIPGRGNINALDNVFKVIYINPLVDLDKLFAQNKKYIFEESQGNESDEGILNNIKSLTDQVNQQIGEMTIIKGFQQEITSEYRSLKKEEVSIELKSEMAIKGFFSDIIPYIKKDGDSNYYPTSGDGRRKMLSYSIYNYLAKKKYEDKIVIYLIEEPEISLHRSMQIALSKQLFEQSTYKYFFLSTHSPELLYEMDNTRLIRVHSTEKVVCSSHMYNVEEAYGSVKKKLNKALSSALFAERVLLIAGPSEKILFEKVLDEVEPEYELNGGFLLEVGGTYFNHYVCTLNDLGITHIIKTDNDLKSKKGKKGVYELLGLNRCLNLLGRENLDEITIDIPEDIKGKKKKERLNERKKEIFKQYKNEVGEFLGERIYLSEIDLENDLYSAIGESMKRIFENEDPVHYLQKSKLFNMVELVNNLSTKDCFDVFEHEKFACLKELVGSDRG
T2 sequence 2: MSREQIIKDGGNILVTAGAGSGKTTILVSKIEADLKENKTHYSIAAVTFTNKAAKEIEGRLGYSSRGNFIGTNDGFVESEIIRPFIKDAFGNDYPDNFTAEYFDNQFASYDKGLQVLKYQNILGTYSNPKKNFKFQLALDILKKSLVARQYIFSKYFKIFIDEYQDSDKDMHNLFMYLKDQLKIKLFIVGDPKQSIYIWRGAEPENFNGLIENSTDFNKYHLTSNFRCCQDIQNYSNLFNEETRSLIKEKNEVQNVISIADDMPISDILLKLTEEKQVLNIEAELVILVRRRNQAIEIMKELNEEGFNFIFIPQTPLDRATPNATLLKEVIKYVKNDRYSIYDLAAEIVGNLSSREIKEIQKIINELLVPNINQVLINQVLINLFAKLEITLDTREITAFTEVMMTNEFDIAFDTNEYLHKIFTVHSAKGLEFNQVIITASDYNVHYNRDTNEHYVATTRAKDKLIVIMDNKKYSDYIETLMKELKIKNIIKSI

GajA;GajB = molecular target: T3, GajA;GajB (Bacillus cereus VD045;Bacillus cereus …, UniProt J8H9C1;J8HQ06 1-578;1-494, |); experiment: EMSA; 5 mM Ca2+; conditions: protein: recombinant;recombinant; chain copies: 4;4; label: none (ethidium bromide post-stain)
T3 sequence 1: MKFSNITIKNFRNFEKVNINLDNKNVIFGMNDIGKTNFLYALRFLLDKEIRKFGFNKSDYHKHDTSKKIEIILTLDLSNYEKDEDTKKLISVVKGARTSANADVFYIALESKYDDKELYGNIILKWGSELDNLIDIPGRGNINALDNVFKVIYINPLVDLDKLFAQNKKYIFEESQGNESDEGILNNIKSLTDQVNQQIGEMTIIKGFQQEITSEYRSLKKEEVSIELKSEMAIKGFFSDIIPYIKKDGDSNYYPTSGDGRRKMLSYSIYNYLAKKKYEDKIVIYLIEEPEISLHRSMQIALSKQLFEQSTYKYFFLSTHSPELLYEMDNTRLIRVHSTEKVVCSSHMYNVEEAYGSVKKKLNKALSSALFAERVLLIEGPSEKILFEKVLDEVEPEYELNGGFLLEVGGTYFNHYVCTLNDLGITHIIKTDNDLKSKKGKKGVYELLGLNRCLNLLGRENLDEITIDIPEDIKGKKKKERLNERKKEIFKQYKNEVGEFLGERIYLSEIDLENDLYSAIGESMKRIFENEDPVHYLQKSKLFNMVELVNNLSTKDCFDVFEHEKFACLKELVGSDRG
T3 sequence 2: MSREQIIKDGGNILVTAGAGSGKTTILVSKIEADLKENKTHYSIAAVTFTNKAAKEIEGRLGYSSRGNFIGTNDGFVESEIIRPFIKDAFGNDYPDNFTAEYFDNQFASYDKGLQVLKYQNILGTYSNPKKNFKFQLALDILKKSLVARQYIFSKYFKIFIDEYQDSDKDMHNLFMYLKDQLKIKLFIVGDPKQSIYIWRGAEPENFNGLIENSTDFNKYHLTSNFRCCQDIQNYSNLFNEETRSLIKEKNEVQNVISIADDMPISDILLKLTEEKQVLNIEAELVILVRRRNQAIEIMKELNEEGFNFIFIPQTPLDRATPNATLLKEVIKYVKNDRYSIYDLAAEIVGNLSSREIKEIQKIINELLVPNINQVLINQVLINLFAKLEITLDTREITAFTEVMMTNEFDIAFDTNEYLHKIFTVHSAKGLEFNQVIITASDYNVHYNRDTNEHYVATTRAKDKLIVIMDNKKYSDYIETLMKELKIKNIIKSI

B1: Bacillus cereus VD045 GajA, co-expressed with GajB, tag removed (subunit of the GajAB complex) (enzyme)
chain: KFSNITIKNFRNFEKVNINLDNKNVIFGMNDIGKTNFLYALRFLLDKEIRKFGFNKSDYHKHDTSKKIEIILTLDLSNYEKDEDTKKLISVVKGARTSANADVFYIALESKYDDKELYGNIILKWGSELDNLIDIPGRGNINALDNVFKVIYINPLVDLDKLFAQNKKYIFEESQGNESDEGILNNIKSLTDQVNQQIGEMTIIKGFQQEITSEYRSLKKEEVSIELKSEMAIKGFFSDIIPYIKKDGDSNYYPTSGDGRRKMLSYSIYNYLAKKKYEDKIVIYLIEEPEISLHRSMQIALSKQLFEQSTYKYFFLSTHSPELLYEMDNTRLIRVHSTEKVVCSSHMYNVEEAYGSVKKKLNKALSSALFAERVLLIEGPSEKILFEKVLDEVEPEYELNGGFLLEVGGTYFNHYVCTLNDLGITHIIKTDNDLKSKKGKKGVYELLGLNRCLNLLGRENLDEITIDIPEDIKGKKKKERLNERKKEIFKQYKNEVGEFLGERIYLSEIDLENDLYSAIGESMKRIFENEDPVHYLQKSKLFNMVELVNNLSTKDCFDVFEHEKFACLKELVGSDRG
notes: GajA, Bacillus cereus VD045, IMG ID 2519684552; the 5×GS linker may stay on GajA after SENP2 cleavage; also called BcGajA; source: E. coli BL21(DE3) strains, co-expressed with GajB, purified (Ni-NTA, SUMO2 cleavage by hSENP2, SEC); not shown: 6×His-SUMO2-5×GS, N-terminal, cleaved
[1]
  stoichiometry N: 4

B2: Bacillus phage Phi3T Gad1 (Gabija anti-defence 1) (natural protein)
chain: MKLIGIKTSNCFLVSDNIEGKRYFHSQLDELLFDGKRATETYKSDWFKLEKEPSVIEKQMPAKKINHRYELKEGFQESELTPKVIKASYIGEDSEYYEVKGLYDLKFEEIPQQNEKIEFEMNVIEEIDGELKLQSHNFNLNYNLLDRIQTHPMLLETKPCYLSQEESYKIIRNHIKANINPKFARITSDYDFCLTVVKVLELYKPHEYIVDLNAMYKRRKPKLEKRFQTKREVEIYKVAPKAYQSYPIVEPFSGKDVEDLKSNIKKFLDDLMAKINEPLVECKCCKGRGVILNEN
notes: Gad1, Bacillus phage Phi3T, 35 kDa; Eight copies stand in the 4:4:8 GajAB–Gad1 complex; source: E. coli, co-expressed with SUMO2-GajAB (pBAD vector), co-purified (Ni-NTA, SEC)
[2]
  stoichiometry N: 8
[3]
  stoichiometry N: 8 Gad1 per 4:4 GajAB complex

B3: 56-bp target dsDNA (dsDNA)
DNA 1: TTTTTTTTTTTTTTTTTAATAACCCGGTTATTTTTTTTTTTTTTTTTTTTTTTTTT
DNA 2: AAAAAAAAAAAAAAAAAAAAAAAAAATAACCGGGTTATTAAAAAAAAAAAAAAAAA
GajA E379A;GajB
  binding result: binds
GajA;GajB
  binding result: binds
